Here are results for seven molecules from patent publication US20250250357A1 (NANJING ZAIMING PHARMACEUTICAL, published 2025).

Test [1] addresses T1, human MSLN-FL-his protein (human, UniProt Q13421 296-580).
T1 construct: also called hMSLN-FL-his; human MSLN full-length protein; not shown: His tag
Nature of the test: ELISA, coated antigen; antibody 1 nM.

Test [2] concerns the target T2, human MSLN-R1-his protein (human, UniProt Q13421 296-390).
T2 construct: also called hMSLN-R1-his; human MSLN-R1 protein; not shown: His tag
T2 chain: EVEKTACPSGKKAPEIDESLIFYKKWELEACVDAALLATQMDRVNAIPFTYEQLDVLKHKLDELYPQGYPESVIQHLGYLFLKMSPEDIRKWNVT
Nature of the test: ELISA, coated antigen; antibody 1 nM. For orientation: In an ELISA, binding on a coated surface is turned into a signal by an enzyme label.

In test [3] the target is T1, human MSLN-FL-his protein. Description: ELISA, coated antigen; antibody 10 nM.
The target in test [4] is T2, human MSLN-R1-his protein. Nature of the test: ELISA, coated antigen; antibody 10 nM.
Test [5] has as its target T1, human MSLN-FL-his protein. Description: ELISA, coated antigen; antibody 0.1 nM.
Test [6] addresses T1, human MSLN-FL-his protein. Nature of the test: ELISA, coated antigen; antibody 100 nM.
The target in test [7] is T2, human MSLN-R1-his protein. Description: ELISA, coated antigen; antibody 0.1 nM.
The target in test [8] is T2, human MSLN-R1-his protein. Description: ELISA, coated antigen; antibody 100 nM.
For test [9], the target named is T1, human MSLN-FL-his protein. Nature of the test: ELISA, coated antigen; antibody 0.01 nM.
Test [10] concerns the target T2, human MSLN-R1-his protein. Description: ELISA, coated antigen; antibody 0.01 nM.
Test [11] deals with T1, human MSLN-FL-his protein. Description: ELISA, coated antigen; antibody 0.001 nM.
Test [12] deals with T2, human MSLN-R1-his protein. Nature of the test: ELISA, coated antigen; antibody 0.001 nM.
Test [13] has as its target T1, human MSLN-FL-his protein. Description: ELISA, coated antigen; antibody 0.0001 nM.
Test [14] deals with T2, human MSLN-R1-his protein. Description: ELISA, coated antigen; antibody 0.0001 nM.
For test [15], the target named is T1, human MSLN-FL-his protein. Description: ELISA, coated antigen; no antibody (blank, column 'none').
Test [16] has as its target T2, human MSLN-R1-his protein. The test is described as above.
Test [17] concerns the target T3, human MSLN protein endogenously expressed on OVCAR3 tumor cells (human, UniProt Q13421 296-598).
T3 construct: whole, on cells; Endogenous target on OVCAR3 cells; kept apart from the recombinant full-length construct; also called mesothelin
Nature of the test: FACS on OVCAR3 cells.

For test [18], the target named is T4, human MSLN full-length protein (NCBI: AAH09272.1) expressed on HEK293T-hMSLN-B8 cells (human, UniProt Q13421 296-598).
T4 construct: Whole encoded precursor
Description: FACS on HEK293T-hMSLN-B8 cells.

In test [19] the target is T5, human MSLN-R3 protein (Met487-Ser606 of NCBI AAH09272.1) expressed on HEK293T-hMSLN-R3 cells (human, UniProt Q13421 487-606).
T5 construct: also called Region3
Nature of the test: FACS on HEK293T-hMSLN-R3 cells.

In test [20] the target is T6, monkey MSLN full-length protein (NCBI: XP_028696439.1) expressed on HEK293T-monkey MSLN cells (monkey).
T6 construct: Whole encoded precursor
T6 chain: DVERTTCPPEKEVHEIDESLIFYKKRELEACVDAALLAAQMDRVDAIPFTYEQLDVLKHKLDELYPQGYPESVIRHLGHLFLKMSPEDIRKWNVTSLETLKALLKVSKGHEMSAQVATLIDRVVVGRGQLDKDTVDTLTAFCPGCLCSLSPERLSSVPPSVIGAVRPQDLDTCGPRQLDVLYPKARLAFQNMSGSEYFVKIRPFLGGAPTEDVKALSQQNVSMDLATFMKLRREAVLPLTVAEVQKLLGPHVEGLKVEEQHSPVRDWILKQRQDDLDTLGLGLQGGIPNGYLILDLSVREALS
Description: FACS on HEK293T-monkey MSLN cells.

T3 sequence (Q13421 other isoform, or with tags, fused parts or gaps): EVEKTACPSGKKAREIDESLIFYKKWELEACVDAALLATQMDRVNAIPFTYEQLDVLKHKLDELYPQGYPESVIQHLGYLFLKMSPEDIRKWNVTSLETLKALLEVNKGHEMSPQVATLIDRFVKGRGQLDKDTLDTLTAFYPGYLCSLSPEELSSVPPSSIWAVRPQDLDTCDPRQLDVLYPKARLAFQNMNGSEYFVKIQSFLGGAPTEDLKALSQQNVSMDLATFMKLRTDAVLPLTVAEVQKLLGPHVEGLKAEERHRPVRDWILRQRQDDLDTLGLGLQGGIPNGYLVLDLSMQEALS
T4 sequence (Q13421 other isoform, or with tags, fused parts or gaps limits assumed): as the sequence (Q13421 other isoform, or with tags, fused parts or gaps) above, with R14P counted along it
T5 sequence (Q13421 495-614): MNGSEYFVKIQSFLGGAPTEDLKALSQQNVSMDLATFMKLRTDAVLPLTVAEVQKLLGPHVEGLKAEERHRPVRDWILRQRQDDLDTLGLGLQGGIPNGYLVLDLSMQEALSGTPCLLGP

B1: S009-F1.2.12 human-murine chimeric antibody (antibody, human IgG1, kappa, V domains shown)
VH: QVQLKQTGPGLVQPSQSLSITCTVSGFSLTNYAVHWVRQSPGKGLEWLGVIWSGGATDYNTVFISRLSISKDNSKSQVFFKVNSLQVDDTAIYYCARTGSGYAMDYWGQGTSVTVSS
VL: DIVLTQSPATLSVTPGDRVSLSCRTSHNVNTYLHWYQQKSHESPRLLIKYASQSISEIPSRFSGSGSGTNFTLSINSVETEDFGMYFCHQTNRWPLTFGAGTKLELKR
notes: Chimeric IgG1/kappa
With B1, the OD450 amounted to 2.27 in test [1]; 0.04 in test [2]; 2.31 in test [3]; 0.05 in [4]; 1.75 in [5]; 2.74 in test [6]. Moreover, the OD450 in test [7] came out at 0.05; in test [8], 0.05; in test [9] it was 0.49; in test [10], 0.04; in test [11] it was 0.11; in [12], 0.05. In addition, the OD450 came out at 0.06 in test [13], 0.04 in [14], 0.06 in test [15] and 0.04 in [16].

B2: S009-F1.7.14 (antibody, human IgG1, kappa)
heavy: not shown
light: QIVLTQSPAIMSASPGEKVTISCSASSSVSYMYWYQQKPGSSPKPWISRTSNLASGVPARFSGSGSGTSYSLTISSMEAEDAATYYCQQYHSYPPTLGAGTKLELKRTVAAPSVFIFPPSDEQLKSGTASVVCLLNNFYPREAKVQWKVDNALQSGNSQESVTEQDSKDSTYSLSSTLTLSKADYEKHKVYACEVTHQGLSSPVTKSFNRGEC
notes: human-murine chimeric antibody, human IgG1/kappa constant regions
Consider B2, for which the “Maximum mean fluorescence intensity” value in [17] turned out to be 2250; in test [18] it was 70300; in test [19], 239; in [20], 47500. Further, the EC50 (in general, the midpoint of the concentration-response curve) in test [18] amounted to 3.4 nM; in test [20], 5.69 nM. Also, the binding result in test [19] was “no binding”.

B3: S009-F1.7.14 human-murine chimeric antibody (antibody, human IgG1, kappa)
heavy: not shown
light: QIVLTQSPAIMSASPGEKVTISCSASSSVSYMYWYQQKPGSSPKPWISRTSNLASGVPARFSGSGSGTSYSLTISSMEAEDAATYYCQQYHSYPPTLGAGTKLELKRTVAAPSVFIFPPSDEQLKSGTASVVCLLNNFYPREAKVQWKVDNALQSGNSQESVTEQDSKDSTYSLSSTLTLSKADYEKHKVYACEVTHQGLSSPVTKSFNRGEC
notes: Chimeric IgG1/kappa
On to B3, for which the OD450 in test [1] is 1.43; in test [2], 0.05; in test [3], 2.05; in test [4], 0.07; in test [5], 0.3; in test [6], 2.59. The OD450 stood at 0.05 in test [7]; 0.27 in test [8]; 0.08 in test [9]; 0.04 in test [10]; 0.06 in test [11]; 0.04 in [12]. In addition, the OD450 in test [13] came out at 0.06; in [14], 0.05; in [15] it was 0.06; in [16] it was 0.05.

B4: S009-F1.56.1 (antibody, human IgG1, kappa, V domains shown)
VH: EVQLQQSGAEVVKPGASVKLSCTASGFNIRHTYMHWVKQRPEQGLEWIGRIDPANGNTEYDPKFQGKATITADTSSNTAYLQLSSLTSEDTAVYYCARDGWYIDVWGAGTTVTVSS
VL: DIVMSQSPSSLAVSVGEKVTMSCKSSQSLLYSNNQKNYLAWYQQKPGQSPKLLIYWASTRESGVPDRFTGSGSGTDFTLTISSVKAEDLAVYYCQRYYSYPWTFGGGTKLEIKR
notes: as for B2
B4: the EC50 in [17] was determined as 0.67 nM; in [18] it was 1.59 nM; in test [20] it was 0.79 nM. In addition, the “Maximum mean fluorescence intensity” value in test [17] worked out at 11700; in test [18], 96300; in [19], 363; in test [20] it was 43100. In [19], the binding result is “no binding”.

B5: S009-F1.25.10 human-murine chimeric antibody (antibody, human IgG1, kappa, V domains shown)
VH: EVQLQQSGPELVKPGASLKISCKASGYSFTDYTMNWVKQSHGKNLEWIGLFNPYNGGISYNQKFKGKATLTVDKSSNTAYMELLSLTSDDSAVYFCARDGRGGFYAMDYWGQGTSVTVSS
VL: DIQMTQTTSSLSASLGDRVTISCRASQDISIYLNWYQQKPDGPVKLLIYYTSRLHSGVPSRFSGSGSGTDFSLTISNLEQEDIATYFCQQGYTLPPWTFGGGTKLEIKR
notes: Chimeric IgG1/kappa
As for B5, the OD450 in test [1] worked out at 2.3; in test [2], 0.03; in test [3], 2.44; in test [4], 0.04; in [5] it was 1.67; in test [6], 2.57. Also, the OD450 in [7] is 0.03; in [8], 0.05; in test [9], 0.43; in [10], 0.04; in test [11], 0.1; in test [12] it was 0.05. For the same molecule, the OD450 in test [13] stood at 0.06; in test [14], 0.04; in test [15], 0.06; in test [16] it was 0.05.

B6: S009-F1.35.24 (antibody, human IgG1, kappa, V domains shown)
VH: EVQLQQSEPELVKPGASVRISCKASGYSFTDYYMHWVKQSPENRLEWIGEINPSTGGTSYNPKFKDKATLTVDKSSSTAYMQLKSLTSEESAVYYCTRYHYYGSSSYVMDYWGQGTSVTVSS
VL: QIVLTQSPAILSASPGERVTMTCSASSSVYHMHWFQQKSGTSPKRWVYDTSKLASGVPARFSGSGSGTSYSLTISSMEAEDAATYYCQHWRTNPLTFGAGTKLELKR
notes: as for B2
In the case of B6, the EC50 in [17] amounted to 2.08 nM; in test [18], 2.93 nM; in test [20], 4.75 nM. Further, the “Maximum mean fluorescence intensity” value in test [17] came to 10500; in [18] it was 109000; in [19], 680; in test [20], 52100. Moreover, the binding result in [19] is listed as “no binding”.

B7: S009-F1.35.24 human-murine chimeric antibody (antibody, human IgG1, kappa, V domains shown)
VH: EVQLQQSEPELVKPGASVRISCKASGYSFTDYYMHWVKQSPENRLEWIGEINPSTGGTSYNPKFKDKATLTVDKSSSTAYMQLKSLTSEESAVYYCTRYHYYGSSSYVMDYWGQGTSVTVSS
VL: QIVLTQSPAILSASPGERVTMTCSASSSVYHMHWFQQKSGTSPKRWVYDTSKLASGVPARFSGSGSGTSYSLTISSMEAEDAATYYCQHWRTNPLTFGAGTKLELKR
notes: Chimeric IgG1/kappa
B7: the OD450 in test [1] amounted to 2.22; in test [2], 0.04; in test [3], 2.27; in test [4], 0.04; in test [5] it was 1.62; in [6], 2.48. Further, the OD450 in [7] stood at 0.04; in test [8], 0.06; in test [9] it was 0.41; in [10], 0.04; in test [11], 0.09; in test [12], 0.04. For the same molecule, the OD450 worked out at 0.06 in [13], 0.04 in [14], 0.06 in test [15] and 0.04 in [16].
